The record followed here is PMC3769986 (Soft matter, 2011).

Read-outs that look alike come from different tables or passages of the source.

Data set [1] deals with the molecule itself. The data set can be described thus: small angle neutron scattering.
Data set [2] deals with the molecule itself. The data set can be described thus: small angle neutron scattering. This is another data set of the same source.

B1: 17H6 (other)
chain: MGHHHHHHHHHHSSGHIHMAAAQEAAAAQAAAQAEAAQAAQAAAQEAAAAQAAAQAEAAQAAQAAAQEAAAAQAAAQAEAAQAAQAAAQEAAAAQAAAQAEAAQAAQAAAQEAAAAQAAAQAEAAQAAQAAAQEAAAAQAAAQAEAAQAAQAGGYGGMG
The term stoichiometry N denotes a count of units in the complex or per binding partner. As for B1, the results for the “stoichiometry N” value in data set [1] and in data set [2] were 266 ± 3 and 171 ± 2, respectively.
